Test results published in article doi:10.1101/2025.01.13.632879 (bioRxiv, 2025).

Molecular target: the molecule itself
Experiment: SEC; affinity-purified protein alone; Superdex 200 Increase 10/300 GL, 100 uL of 10 mg/mL, 0.2 mL/min; 200 mM NaCl, 10 mM Tris HCl pH 7.5, 5% glycerol, 1 mM DTT; monomer and dimer peaks

B1: Escherichia coli LolA P65T (natural protein, UniProt P61316 22-203, looked up)
chain: DAASDLKSRLDKVSSFHASFTQKVTDGSGAAVQEGQGDLWVKRTNLFNWHMTQPDESILVSDGKTLWFYNPFVEQATATWLKDATGNTPFMLIARNQSSDWQQYNIKQNGDDFVLTPKASNGNLKQFTINVGRDGTIHQFSAVEQDDQRSSYQLKSQQNGAVDAAKFTFTPPQGVTVDDQRK
notes: LolA of Escherichia coli; source: E. coli BL21(DE3), purified (Ni-NTA, SEC)
For B1, the “stoichiometry N” value was 2.
